# According to patent US6998239 (CHEMOCENTRYX, dated 2006):
# T1: human CCX CKR with N-terminal Flag epitope, stably expressed on HEK293 cells (human, UniProt Q9NPB9 1-350)
# T1 construct: also called HEK293-CCX CKR cells
# T1 sequence: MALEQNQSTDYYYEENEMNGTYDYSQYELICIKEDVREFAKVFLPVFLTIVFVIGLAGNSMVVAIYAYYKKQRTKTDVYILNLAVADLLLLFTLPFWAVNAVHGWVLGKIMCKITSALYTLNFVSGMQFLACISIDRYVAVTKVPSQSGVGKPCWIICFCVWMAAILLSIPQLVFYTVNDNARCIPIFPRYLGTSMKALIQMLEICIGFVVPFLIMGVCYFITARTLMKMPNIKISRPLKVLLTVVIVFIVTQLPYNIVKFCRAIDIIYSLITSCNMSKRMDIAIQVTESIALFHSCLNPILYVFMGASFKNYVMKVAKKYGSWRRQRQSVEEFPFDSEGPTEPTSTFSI
# Assays:
# [1] = biological target: T1, human CCX CKR with N-terminal Flag …; assay: radioligand binding competition on CCX CKR stable transfectants (similar experiments)
# [2] = biological target: T1, human CCX CKR with N-terminal Flag …; assay: displacement of 125I-ELC or 125I-TECK from CCX CKR transfectants, 200 nM cold chemokine
# [3] = biological target: T1, human CCX CKR with N-terminal Flag …; assay: radioligand binding competition on CCX CKR stable transfectants, Scatchard transformation
Binder,binding result [2],also measured
"murine CTACK (ligand, UniProt Q9Z1X0 26-120, looked up, also called mCTACK; CCL27) LPLPSSTSCCTQLYRQPLPSRLLRRIVHMELQEADGDCHLQAVVLHLARRSVCVHPQNRSLARWLERQGKRLQGTVPSLNLVLQKKMYSHPQQQN",–,Kd [1]: ~9 nM
"mMIP-1gamma (murine macrophage inflammatory protein 1 gamma) (ligand, UniProt P51670 22-122, looked up, also called mMIP-1γ; CCF18) QITHATETKEVQSSLKAQQGLEIEMFHMGFQDSSDCCLSYNSRIQCSRFIGYFPTSGGCTRPGIIFISKRGFQVCANPSDRRVQRCIERLEQNSQPRTYKQ",binds,–
"murine TECK (ligand, UniProt O35903 24-144, looked up) QGAFEDCCLGYQHRIKWNVLRHARNYHQQEVSGSCNLRAVRFYFRQKVVCGNPEDMNVKRAMRILTARKRLVHWKSASDSQTERKKSNHMKSKVENPNSTSVRSATLGHPRMVMMPRKTNN",binds,–
"human SLC (secondary lymphoid-tissue chemokine) (ligand, UniProt O00585 24-134, looked up, also called 6Ckine) SDGGAQDCCLKYSQRKIPAKVVRSYRKQEPSLGCSIPAILFLPRKRSQAELCADPKELWVQQLMQHLDKTPSPQKPAQGCRKDRGASKTGKKGKGSKGCKRTERSQTPKGP",–,binding result [3]: binds
"human ELC (EBI1 ligand chemokine) (ligand, UniProt Q99731 22-98, looked up, 125I label where used as radioligand, also called MIP-3beta; MIP3beta) GTNDAEDCCLSVTQKPIPGYIVRNFHYLLIKDGCRVPAVVFTTLRGRQLCAPPDQPWVERIIQRLQRTSAKMKRRSS",–,binding result [3]: binds
"human TECK (thymus expressed chemokine) (ligand, UniProt O15444 24-150, looked up, 125I label where used as radioligand) QGVFEDCCLAYHYPIGWAVLRRAWTYRIQEVSGSCNLPAAIFYLPKRHRKVCGNPKSREVQRAMKLLDARNKVFAKLHHNTQTFQAGPHAVKKLSSGNSKLSSSKFSNPISSSKRNVSLLISANSGL",binds,–
"murine ELC (ligand, UniProt O70460 26-108, looked up) GANDAEDCCLSVTQRPIPGNIVKAFRYLLNEDGCRVPAVVFTTLRGYQLCAPPDQPWVDRIIRRLKKSSAKNKGNSTRRSPVS",binds,–
